Experiment [1] has as its target T1, human FcγRIIaH extracellular domain, C-terminal His-tag (human, UniProt P12318 34-217).
T1 construct: also called human FcγRIIa (type H); FcgRIIaH; not shown: His-tag added to the C-terminus
T1 sequence: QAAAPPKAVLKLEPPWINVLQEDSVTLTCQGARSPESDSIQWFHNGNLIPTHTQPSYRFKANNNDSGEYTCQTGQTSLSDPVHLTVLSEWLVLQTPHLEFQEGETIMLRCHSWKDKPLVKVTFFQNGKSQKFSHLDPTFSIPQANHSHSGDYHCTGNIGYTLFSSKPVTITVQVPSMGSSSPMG
As to the kind of experiment: SPR (BIACORE), antibody captured, soluble FcgR as analyte, 25C. How it is done:
(§1) The kinetic analysis of interactions between these antibodies and FcγR was carried out using BIACORE® T200 or BIACORE® 4000 (GE Healthcare). HBS-EP+ (GE Healthcare) was used as the running buffer, and the measurement temperature was set to 25° C. A chip produced by immobilizing Protein A. Protein A/G or mouse anti-human IgG kappa light chain (BD Biosciences) onto a Series S Sensor Chip CM4 or CM5 (GE Healthcare) by the amine-coupling method was used. […] After the measurement, the antibody captured on the chip was washed off by allowing reaction with 10 mM glycine-HCl, pH1.5 and 25 mM NaOH so that the chip was regenerated and used repeatedly. The sensorgrams obtained as measurement results were analyzed by the 1:1 Langmuir binding model using the BIACORE® Evaluation Software to calculate the binding rate constant ka (L/mol/s) and dissociation rate constant kd (l/s), and the dissociation constant KD (mol/L) was calculated from these values. […] Regarding such interactions, KD values were calculated using the following 1:1 binding model described in BIACORE® T100 Software Handbook BR1006-48 Edition AE.
(§2) Human FcγRIIb-enhanced Fc variants with anti-myostatin variable region were constructed and their affinity for human FcγRs was evaluated. […] In addition, substitutions (Q311R/D413K or […]) were also introduced. The variants were expressed using M103202L1045-SK1 as light chain and their affinity to human FcγRs was analyzed according to the method shown in Example 34.

Experiment [2] addresses T2, human FcγRIIaR extracellular domain, C-terminal His-tag (human, UniProt P12318 34-217).
T2 construct: also called human FcγRIIa (type R); FcgRIIaR; not shown: His-tag added to the C-terminus
T2 chain: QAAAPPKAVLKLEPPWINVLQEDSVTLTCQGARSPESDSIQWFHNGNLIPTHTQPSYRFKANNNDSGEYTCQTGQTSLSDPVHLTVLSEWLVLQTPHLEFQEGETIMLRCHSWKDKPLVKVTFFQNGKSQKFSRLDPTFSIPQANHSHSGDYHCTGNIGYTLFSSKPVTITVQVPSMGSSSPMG
Described as above. How it is done:
as §1, §2

Experiment [3] has as its target T3, human FcγRIIIaV extracellular domain, C-terminal His-tag (human, UniProt P08637 17-208).
T3 construct: also called FcgRIIIaV; not shown: His-tag added to the C-terminus
The description is as above. Here is the method:
as §1, §2

Experiment [4] has as its target T4, human FcγRIIb extracellular domain, C-terminal His-tag (human, UniProt P31994 43-217).
T4 construct: also called FcgRIIb; not shown: His-tag added to the C-terminus
T4 sequence: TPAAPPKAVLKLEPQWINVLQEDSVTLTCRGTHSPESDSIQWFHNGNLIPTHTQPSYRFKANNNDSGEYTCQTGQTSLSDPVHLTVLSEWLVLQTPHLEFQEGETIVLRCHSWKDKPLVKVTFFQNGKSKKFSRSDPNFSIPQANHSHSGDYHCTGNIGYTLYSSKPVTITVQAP
The experiment is described as above. How it is done: as §1, §2

The target of experiment [5] is T1, human FcγRIIaH extracellular domain, …. The experiment in a line: SPR; KD of SG1 divided by KD of variant.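 Further: relative to parent M103205H795-SG1 carrying the SG1 human heavy chain constant region.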 Here is the method:
as §1, §2
Background: In SPR one partner is held on a chip, and binding of the other changes the refractive index at the surface.

Experiment [6] addresses T2, human FcγRIIaR extracellular domain, …. As to the kind of experiment: SPR; KD of SG1 divided by KD of variant.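 Further: relative to parent M103205H795-SG1 carrying the SG1 human heavy chain constant region.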 How it is done:
as §1, §2

Experiment [7] has as its target T3, human FcγRIIIaV extracellular domain, …. As to the kind of experiment: SPR; KD of SG1 divided by KD of variant.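 Further: relative to parent M103205H795-SG1 carrying the SG1 human heavy chain constant region.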 How it is done:
as §1, §2

Experiment [8] has as its target T4, human FcγRIIb extracellular domain, …. As to the kind of experiment: SPR; KD of SG1 divided by KD of variant.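 Further: relative to parent M103205H795-SG1 carrying the SG1 human heavy chain constant region.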 Here is the method:
as §1, §2

T3 sequence (P08637 17-208 F176V): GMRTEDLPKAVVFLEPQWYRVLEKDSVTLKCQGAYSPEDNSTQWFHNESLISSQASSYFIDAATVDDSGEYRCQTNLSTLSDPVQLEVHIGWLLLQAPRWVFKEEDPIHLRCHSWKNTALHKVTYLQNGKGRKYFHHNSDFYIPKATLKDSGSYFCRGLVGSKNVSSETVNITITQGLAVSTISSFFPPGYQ

B1: MS1032LO19-SG1 (MS103240H795-SG1/M103202L1045-SK1) (antibody, human IgG1, kappa)
heavy: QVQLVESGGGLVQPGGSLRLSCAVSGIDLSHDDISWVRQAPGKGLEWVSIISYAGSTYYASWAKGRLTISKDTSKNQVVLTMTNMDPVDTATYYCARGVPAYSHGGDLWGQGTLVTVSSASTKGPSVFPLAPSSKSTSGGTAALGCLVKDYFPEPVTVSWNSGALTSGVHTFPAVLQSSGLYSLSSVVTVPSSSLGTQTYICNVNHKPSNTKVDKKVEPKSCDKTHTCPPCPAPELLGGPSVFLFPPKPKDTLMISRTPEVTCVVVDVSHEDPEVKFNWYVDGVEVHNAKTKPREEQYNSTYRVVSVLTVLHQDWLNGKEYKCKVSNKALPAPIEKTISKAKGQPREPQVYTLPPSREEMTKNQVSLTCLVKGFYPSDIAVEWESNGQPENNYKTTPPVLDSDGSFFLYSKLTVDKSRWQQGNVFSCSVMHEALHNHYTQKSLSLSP
light: DIVMTQSPATLSLSPGERATLSCTTSQSVYHENWLSWFQQKPGQPPKLLIYWASTLAYGVPSRFSGSGSGTDFTLTISSLQPEDAATYYCAGGYGGGRYAFGQGTKVEIKRTVAAPSVFIFPPSDEQLKSGTASVVCLLNNFYPREAKVQWKVDNALQSGNSQESVTEQDSKDSTYSLSSTLTLSKADYEKHKVYACEVTHQGLSSPVTKSFNRGEC
For the molecule B1, the Kd in experiment [1] amounted to 0.75 µM; in experiment [2], 1.1 µM; in experiment [3], 0.81 µM; in experiment [4] it was 0.58 µM. Besides, the “KD fold (SG1 = 1)” value in experiment [5], in experiment [6], in experiment [7] and in experiment [8] was 1 fold each time.

B2: MS103240H795-TT09/M103202L1045-SK1 (antibody, human IgG1, kappa)
heavy: QVQLVESGGGLVQPGGSLRLSCAVSGIDLSHDDISWVRQAPGKGLEWVSIISYAGSTYYASWAKGRLTISKDTSKNQVVLTMTNMDPVDTATYYCARGVPAYSHGGDLWGQGTLVTVSSASTKGPSVFPLAPSSKSTSGGTAALGCLVKDYFPEPVTVSWNSGALTSGVHTFPAVLQSSGLYSLSSVVTVPSSSLGTQTYICNVNHKPSNTKVDKKVEPKSCDKTHTCPPCPAPELLGGDSVFLFPPKPKDVLMISRTPEVTCVVIDVSHEDPEVKFNWYVDGVEVHNAKTKPREEQYNSTYRVVSVLPVLHQDWLNGKEYKCKVSNKALPKPIEKTISKAKGQPREPQVYTLPPSREEMTKNQVSLTCLVKGFYPSDIAVEWESNGQPENNYKTTPPVLDSDGSFFLYSKLTVDKSRWQQGNVFSCSVMHEALHNHYTQKSLSLSP
light: DIVMTQSPATLSLSPGERATLSCTTSQSVYHENWLSWFQQKPGQPPKLLIYWASTLAYGVPSRFSGSGSGTDFTLTISSLQPEDAATYYCAGGYGGGRYAFGQGTKVEIKRTVAAPSVFIFPPSDEQLKSGTASVVCLLNNFYPREAKVQWKVDNALQSGNSQESVTEQDSKDSTYSLSSTLTLSKADYEKHKVYACEVTHQGLSSPVTKSFNRGEC
notes: CH = SG1 with P238D/T250V/V264I/T307P/A330K (EU numbering)
In the case of B2, the Kd in experiment [1] was 44 µM; in experiment [2], 14 µM; in experiment [3], 170 µM; in experiment [4], 0.29 µM. The “KD fold (SG1 = 1)” value amounted to 0.017 fold in experiment [5], 0.08 fold in experiment [6], 0.005 fold in experiment [7] and 20 fold in experiment [8].

B3: MS103240H795-MY214/M103202L1045-SK1 (antibody, human IgG1, kappa)
heavy: QVQLVESGGGLVQPGGSLRLSCAVSGIDLSHDDISWVRQAPGKGLEWVSIISYAGSTYYASWAKGRLTISKDTSKNQVVLTMTNMDPVDTATYYCARGVPAYSHGGDLWGQGTLVTVSSASTKGPSVFPLAPSSKSTSGGTAALGCLVKDYFPEPVTVSWNSGALTSGVHTFPAVLQSSGLYSLSSVVTVPSSSLGTQTYICNVNHKPSNTKVDKKVEPKSCDKTHTCPPCPAPELLGGDSVFLFPPKPKDVLMISRTPEVTCVVVDVSHEDPEVKFNWYVDGVEVHNAKTKPREEQYNSTYRVVSVLPVLHQDWLNGKEYKCKVSNKALPAPIEKTISKAKGQPREPQVYTLPPSREEMTKNQVSLTCLVKGFYPSDIAVEWESNGQPENNYKTTPPVLDSDGSFFLYSKLTVDKSRWQQGNVFSCSVMHEALHNHYTQKSLSLSP
light: DIVMTQSPATLSLSPGERATLSCTTSQSVYHENWLSWFQQKPGQPPKLLIYWASTLAYGVPSRFSGSGSGTDFTLTISSLQPEDAATYYCAGGYGGGRYAFGQGTKVEIKRTVAAPSVFIFPPSDEQLKSGTASVVCLLNNFYPREAKVQWKVDNALQSGNSQESVTEQDSKDSTYSLSSTLTLSKADYEKHKVYACEVTHQGLSSPVTKSFNRGEC
notes: CH = SG1 with P238D/T250V/T307P (EU numbering)
For the molecule B3, the Kd in experiment [1] is 32 µM; in experiment [2] it was 21 µM; in experiment [3] it was 150 µM; in experiment [4], 1 µM. The “KD fold (SG1 = 1)” value turned out to be 0.023 fold in experiment [5], 0.05 fold in experiment [6], 0.005 fold in experiment [7] and 5.8 fold in experiment [8].

B4: MS103240H795-TT10/M103202L1045-SK1 (antibody, human IgG1, kappa)
heavy: QVQLVESGGGLVQPGGSLRLSCAVSGIDLSHDDISWVRQAPGKGLEWVSIISYAGSTYYASWAKGRLTISKDTSKNQVVLTMTNMDPVDTATYYCARGVPAYSHGGDLWGQGTLVTVSSASTKGPSVFPLAPSSKSTSGGTAALGCLVKDYFPEPVTVSWNSGALTSGVHTFPAVLQSSGLYSLSSVVTVPSSSLGTQTYICNVNHKPSNTKVDKKVEPKSCDKTHTCPPCPAPELLGGDSVFLFPPKPKDVLMISRTPEVTCVVVDVAHEDPEVKFNWYVDGVEVHNAKTKPREEQYNSTYRVVSVLPVLHQDWLNGKEYKCKVSNKALPKPIEKTISKAKGQPREPQVYTLPPSREEMTKNQVSLTCLVKGFYPSDIAVEWESNGQPENNYKTTPPVLDSDGSFFLYSKLTVDKSRWQQGNVFSCSVMHEALHNHYTQKSLSLSP
light: DIVMTQSPATLSLSPGERATLSCTTSQSVYHENWLSWFQQKPGQPPKLLIYWASTLAYGVPSRFSGSGSGTDFTLTISSLQPEDAATYYCAGGYGGGRYAFGQGTKVEIKRTVAAPSVFIFPPSDEQLKSGTASVVCLLNNFYPREAKVQWKVDNALQSGNSQESVTEQDSKDSTYSLSSTLTLSKADYEKHKVYACEVTHQGLSSPVTKSFNRGEC
notes: CH = SG1 with P238D/T250V/S267A/T307P/A330K (EU numbering)
For the molecule B4, the Kd in experiment [1] came to 56 µM; in experiment [2], 8.7 µM; in experiment [3] it was 790 µM; in experiment [4], 0.63 µM. Besides, the “KD fold (SG1 = 1)” value came out at 0.013 fold in experiment [5], 0.13 fold in experiment [6], 0.001 fold in experiment [7] and 9.2 fold in experiment [8].

B5: MS103240H795-MY009/M103202L1045-SK1 (antibody, human IgG1, kappa)
heavy: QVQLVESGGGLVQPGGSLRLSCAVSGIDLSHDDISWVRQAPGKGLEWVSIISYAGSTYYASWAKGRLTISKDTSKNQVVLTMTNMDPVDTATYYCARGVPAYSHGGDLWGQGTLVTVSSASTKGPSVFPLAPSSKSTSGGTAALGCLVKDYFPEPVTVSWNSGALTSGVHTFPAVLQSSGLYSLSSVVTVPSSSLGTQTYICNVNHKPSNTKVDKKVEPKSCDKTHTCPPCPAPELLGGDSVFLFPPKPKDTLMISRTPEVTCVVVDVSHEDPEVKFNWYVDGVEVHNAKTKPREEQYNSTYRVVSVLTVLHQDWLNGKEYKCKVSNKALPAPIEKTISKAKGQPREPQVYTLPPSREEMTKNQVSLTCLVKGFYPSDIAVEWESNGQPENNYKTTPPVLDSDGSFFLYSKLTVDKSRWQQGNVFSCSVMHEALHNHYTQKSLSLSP
light: DIVMTQSPATLSLSPGERATLSCTTSQSVYHENWLSWFQQKPGQPPKLLIYWASTLAYGVPSRFSGSGSGTDFTLTISSLQPEDAATYYCAGGYGGGRYAFGQGTKVEIKRTVAAPSVFIFPPSDEQLKSGTASVVCLLNNFYPREAKVQWKVDNALQSGNSQESVTEQDSKDSTYSLSSTLTLSKADYEKHKVYACEVTHQGLSSPVTKSFNRGEC
notes: CH = SG1 with P238D (EU numbering)
Take B5: the Kd is 73 µM in experiment [1], 23 µM in experiment [2], 220 µM in experiment [3] and 1.3 µM in experiment [4]. In addition, the “KD fold (SG1 = 1)” value in experiment [5] came out at 0.01 fold; in experiment [6], 0.05 fold; in experiment [7] it was 0.004 fold; in experiment [8], 4.5 fold.

B6: MS103240H795-TT08/M103202L1045-SK1 (antibody, human IgG1, kappa)
heavy: QVQLVESGGGLVQPGGSLRLSCAVSGIDLSHDDISWVRQAPGKGLEWVSIISYAGSTYYASWAKGRLTISKDTSKNQVVLTMTNMDPVDTATYYCARGVPAYSHGGDLWGQGTLVTVSSASTKGPSVFPLAPSSKSTSGGTAALGCLVKDYFPEPVTVSWNSGALTSGVHTFPAVLQSSGLYSLSSVVTVPSSSLGTQTYICNVNHKPSNTKVDKKVEPKSCDKTHTCPPCPAPELLGGDSVFLFPPKPKDVLMISRTPEVTCVVVDVSHEDPEVKFNWYVDGVEVHNAKTKPREEQYNSTYRVVSVLPVLHQDWLNGKEYKCKVSNKALPKPIEKTISKAKGQPREPQVYTLPPSREEMTKNQVSLTCLVKGFYPSDIAVEWESNGQPENNYKTTPPVLDSDGSFFLYSKLTVDKSRWQQGNVFSCSVMHEALHNHYTQKSLSLSP
light: DIVMTQSPATLSLSPGERATLSCTTSQSVYHENWLSWFQQKPGQPPKLLIYWASTLAYGVPSRFSGSGSGTDFTLTISSLQPEDAATYYCAGGYGGGRYAFGQGTKVEIKRTVAAPSVFIFPPSDEQLKSGTASVVCLLNNFYPREAKVQWKVDNALQSGNSQESVTEQDSKDSTYSLSSTLTLSKADYEKHKVYACEVTHQGLSSPVTKSFNRGEC
notes: CH = SG1 with P238D/T250V/T307P/A330K (EU numbering)
Take B6: the Kd stood at 55 µM in experiment [1], 16 µM in experiment [2], 96 µM in experiment [3] and 0.68 µM in experiment [4]. Moreover, the “KD fold (SG1 = 1)” value in experiment [5] came to 0.014 fold; in experiment [6] it was 0.07 fold; in experiment [7], 0.008 fold; in experiment [8], 8.5 fold.

The Kd is the concentration at which binding is half-saturated.

The values are drawn from US20200317768A1 (published 2020).
